Measurements as given in publication PMC10979912.
Values belong to the substance of their own block, whether it stands above or below them.

Target: Tau (2N4R Tau; Tau(291–391)) 2-441 (UniProt P10636)
Assay: solid-phase ELISA, immobilised fragment, soluble Tau
Details: reference: unmodified (WT) Tau(291–391)

- binding against the reference (sites S305): weaker
Substance: Tau (2N4R Tau; Tau(291–391)) 291-391 (from UniProt P10636-8) pS305 Tau(291–391)

- binding against the reference (sites S352): weaker
Substance: Tau (2N4R Tau; Tau(291–391)) 291-391 (from UniProt P10636-8) pS352 Tau(291–391)

- binding against the reference (sites S356): weaker
Substance: Tau (2N4R Tau; Tau(291–391)) 291-391 (from UniProt P10636-8) pS356 Tau(291–391)
